Results published in patent publication US20210063414A1, “METHODS FOR PREVENTING AND/OR TREATING BONE LOSS CONDITIONS BY MODULATING IRISIN” (Dana-Farber Cancer Institute, Inc., priority 2018, published 2021).

Legend:
Assay in all cases: Crosslinking/co-immunoprecipitation/mass spectrometry (TMT quantitative proteomics) to identify irisin receptors
Type in all cases: binding
[1] = target: T1, MLO-Y4 cell surface proteins (Mus musculus, UniProt P56567); settings: co-precipitated protein Csta (CYTA_MOUSE)
T1 construct: endogenous in cells; host or cells: MLO-Y4
T1 sequence (P56567 1-97): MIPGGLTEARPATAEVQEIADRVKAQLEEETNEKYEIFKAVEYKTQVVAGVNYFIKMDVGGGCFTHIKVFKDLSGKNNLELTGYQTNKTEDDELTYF
Method in brief: (§1)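 Relative protein abundance came from 6-plex TMT MS3 quantitation on an Orbitrap Fusion Lumos, after in-gel trypsin digestion of Coomassie-stained SDS-PAGE lanes. Input was a Ni-NTA pulldown (250 mM imidazole elution) of lysates from murine MLO-Y4 cells. These cells were treated on ice with His-tagged irisin or adipsin (10 nM, 20 min) in serum-free medium, then crosslinked with 1.5 mM DTSSP for 30 min.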

[2] = target: T2, MLO-Y4 cell surface proteins (Mus musculus, UniProt Q6ZQ93); settings: co-precipitated protein Usp34 (UBP34_MOUSE)
T2 construct: endogenous in cells; host or cells: MLO-Y4
Method in brief: as §1

[3] = target: T3, MLO-Y4 cell surface proteins (Mus musculus, UniProt Q8K221); settings: co-precipitated protein Arfip2 (ARFP2_MOUSE)
T3 construct: endogenous in cells; host or cells: MLO-Y4
T3 sequence (Q8K221 1-341): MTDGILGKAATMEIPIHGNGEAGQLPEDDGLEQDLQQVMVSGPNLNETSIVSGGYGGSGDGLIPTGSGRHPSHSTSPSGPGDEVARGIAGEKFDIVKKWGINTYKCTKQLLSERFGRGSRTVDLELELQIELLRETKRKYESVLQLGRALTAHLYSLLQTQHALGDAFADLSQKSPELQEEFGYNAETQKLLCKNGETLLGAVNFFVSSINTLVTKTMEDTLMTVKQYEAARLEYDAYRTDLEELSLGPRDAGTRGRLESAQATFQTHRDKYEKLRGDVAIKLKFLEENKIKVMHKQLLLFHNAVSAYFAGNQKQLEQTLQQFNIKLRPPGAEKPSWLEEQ
Method in brief: as §1

[4] = target: T4, MLO-Y4 cell surface proteins (Mus musculus, UniProt Q8R1I1); settings: co-precipitated protein Uqcr10 (QCR9_MOUSE)
T4 construct: endogenous in cells; host or cells: MLO-Y4
T4 sequence (Q8R1I1 1-64): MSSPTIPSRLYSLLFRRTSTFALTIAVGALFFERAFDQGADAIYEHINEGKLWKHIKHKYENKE
Method in brief: as §1

[5] = target: T5, MLO-Y4 cell surface proteins (Mus musculus, UniProt Q921N7); settings: co-precipitated protein Tmem70 (TMM70_MOUSE)
T5 construct: endogenous in cells; host or cells: MLO-Y4
T5 sequence (Q921N7 78-253): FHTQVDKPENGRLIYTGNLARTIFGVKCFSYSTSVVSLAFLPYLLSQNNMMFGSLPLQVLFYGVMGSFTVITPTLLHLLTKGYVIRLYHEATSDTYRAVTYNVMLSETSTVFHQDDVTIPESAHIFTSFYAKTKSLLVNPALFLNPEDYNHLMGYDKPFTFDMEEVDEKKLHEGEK
Method in brief: as §1

T2 sequence (Q6ZQ93 whole entry): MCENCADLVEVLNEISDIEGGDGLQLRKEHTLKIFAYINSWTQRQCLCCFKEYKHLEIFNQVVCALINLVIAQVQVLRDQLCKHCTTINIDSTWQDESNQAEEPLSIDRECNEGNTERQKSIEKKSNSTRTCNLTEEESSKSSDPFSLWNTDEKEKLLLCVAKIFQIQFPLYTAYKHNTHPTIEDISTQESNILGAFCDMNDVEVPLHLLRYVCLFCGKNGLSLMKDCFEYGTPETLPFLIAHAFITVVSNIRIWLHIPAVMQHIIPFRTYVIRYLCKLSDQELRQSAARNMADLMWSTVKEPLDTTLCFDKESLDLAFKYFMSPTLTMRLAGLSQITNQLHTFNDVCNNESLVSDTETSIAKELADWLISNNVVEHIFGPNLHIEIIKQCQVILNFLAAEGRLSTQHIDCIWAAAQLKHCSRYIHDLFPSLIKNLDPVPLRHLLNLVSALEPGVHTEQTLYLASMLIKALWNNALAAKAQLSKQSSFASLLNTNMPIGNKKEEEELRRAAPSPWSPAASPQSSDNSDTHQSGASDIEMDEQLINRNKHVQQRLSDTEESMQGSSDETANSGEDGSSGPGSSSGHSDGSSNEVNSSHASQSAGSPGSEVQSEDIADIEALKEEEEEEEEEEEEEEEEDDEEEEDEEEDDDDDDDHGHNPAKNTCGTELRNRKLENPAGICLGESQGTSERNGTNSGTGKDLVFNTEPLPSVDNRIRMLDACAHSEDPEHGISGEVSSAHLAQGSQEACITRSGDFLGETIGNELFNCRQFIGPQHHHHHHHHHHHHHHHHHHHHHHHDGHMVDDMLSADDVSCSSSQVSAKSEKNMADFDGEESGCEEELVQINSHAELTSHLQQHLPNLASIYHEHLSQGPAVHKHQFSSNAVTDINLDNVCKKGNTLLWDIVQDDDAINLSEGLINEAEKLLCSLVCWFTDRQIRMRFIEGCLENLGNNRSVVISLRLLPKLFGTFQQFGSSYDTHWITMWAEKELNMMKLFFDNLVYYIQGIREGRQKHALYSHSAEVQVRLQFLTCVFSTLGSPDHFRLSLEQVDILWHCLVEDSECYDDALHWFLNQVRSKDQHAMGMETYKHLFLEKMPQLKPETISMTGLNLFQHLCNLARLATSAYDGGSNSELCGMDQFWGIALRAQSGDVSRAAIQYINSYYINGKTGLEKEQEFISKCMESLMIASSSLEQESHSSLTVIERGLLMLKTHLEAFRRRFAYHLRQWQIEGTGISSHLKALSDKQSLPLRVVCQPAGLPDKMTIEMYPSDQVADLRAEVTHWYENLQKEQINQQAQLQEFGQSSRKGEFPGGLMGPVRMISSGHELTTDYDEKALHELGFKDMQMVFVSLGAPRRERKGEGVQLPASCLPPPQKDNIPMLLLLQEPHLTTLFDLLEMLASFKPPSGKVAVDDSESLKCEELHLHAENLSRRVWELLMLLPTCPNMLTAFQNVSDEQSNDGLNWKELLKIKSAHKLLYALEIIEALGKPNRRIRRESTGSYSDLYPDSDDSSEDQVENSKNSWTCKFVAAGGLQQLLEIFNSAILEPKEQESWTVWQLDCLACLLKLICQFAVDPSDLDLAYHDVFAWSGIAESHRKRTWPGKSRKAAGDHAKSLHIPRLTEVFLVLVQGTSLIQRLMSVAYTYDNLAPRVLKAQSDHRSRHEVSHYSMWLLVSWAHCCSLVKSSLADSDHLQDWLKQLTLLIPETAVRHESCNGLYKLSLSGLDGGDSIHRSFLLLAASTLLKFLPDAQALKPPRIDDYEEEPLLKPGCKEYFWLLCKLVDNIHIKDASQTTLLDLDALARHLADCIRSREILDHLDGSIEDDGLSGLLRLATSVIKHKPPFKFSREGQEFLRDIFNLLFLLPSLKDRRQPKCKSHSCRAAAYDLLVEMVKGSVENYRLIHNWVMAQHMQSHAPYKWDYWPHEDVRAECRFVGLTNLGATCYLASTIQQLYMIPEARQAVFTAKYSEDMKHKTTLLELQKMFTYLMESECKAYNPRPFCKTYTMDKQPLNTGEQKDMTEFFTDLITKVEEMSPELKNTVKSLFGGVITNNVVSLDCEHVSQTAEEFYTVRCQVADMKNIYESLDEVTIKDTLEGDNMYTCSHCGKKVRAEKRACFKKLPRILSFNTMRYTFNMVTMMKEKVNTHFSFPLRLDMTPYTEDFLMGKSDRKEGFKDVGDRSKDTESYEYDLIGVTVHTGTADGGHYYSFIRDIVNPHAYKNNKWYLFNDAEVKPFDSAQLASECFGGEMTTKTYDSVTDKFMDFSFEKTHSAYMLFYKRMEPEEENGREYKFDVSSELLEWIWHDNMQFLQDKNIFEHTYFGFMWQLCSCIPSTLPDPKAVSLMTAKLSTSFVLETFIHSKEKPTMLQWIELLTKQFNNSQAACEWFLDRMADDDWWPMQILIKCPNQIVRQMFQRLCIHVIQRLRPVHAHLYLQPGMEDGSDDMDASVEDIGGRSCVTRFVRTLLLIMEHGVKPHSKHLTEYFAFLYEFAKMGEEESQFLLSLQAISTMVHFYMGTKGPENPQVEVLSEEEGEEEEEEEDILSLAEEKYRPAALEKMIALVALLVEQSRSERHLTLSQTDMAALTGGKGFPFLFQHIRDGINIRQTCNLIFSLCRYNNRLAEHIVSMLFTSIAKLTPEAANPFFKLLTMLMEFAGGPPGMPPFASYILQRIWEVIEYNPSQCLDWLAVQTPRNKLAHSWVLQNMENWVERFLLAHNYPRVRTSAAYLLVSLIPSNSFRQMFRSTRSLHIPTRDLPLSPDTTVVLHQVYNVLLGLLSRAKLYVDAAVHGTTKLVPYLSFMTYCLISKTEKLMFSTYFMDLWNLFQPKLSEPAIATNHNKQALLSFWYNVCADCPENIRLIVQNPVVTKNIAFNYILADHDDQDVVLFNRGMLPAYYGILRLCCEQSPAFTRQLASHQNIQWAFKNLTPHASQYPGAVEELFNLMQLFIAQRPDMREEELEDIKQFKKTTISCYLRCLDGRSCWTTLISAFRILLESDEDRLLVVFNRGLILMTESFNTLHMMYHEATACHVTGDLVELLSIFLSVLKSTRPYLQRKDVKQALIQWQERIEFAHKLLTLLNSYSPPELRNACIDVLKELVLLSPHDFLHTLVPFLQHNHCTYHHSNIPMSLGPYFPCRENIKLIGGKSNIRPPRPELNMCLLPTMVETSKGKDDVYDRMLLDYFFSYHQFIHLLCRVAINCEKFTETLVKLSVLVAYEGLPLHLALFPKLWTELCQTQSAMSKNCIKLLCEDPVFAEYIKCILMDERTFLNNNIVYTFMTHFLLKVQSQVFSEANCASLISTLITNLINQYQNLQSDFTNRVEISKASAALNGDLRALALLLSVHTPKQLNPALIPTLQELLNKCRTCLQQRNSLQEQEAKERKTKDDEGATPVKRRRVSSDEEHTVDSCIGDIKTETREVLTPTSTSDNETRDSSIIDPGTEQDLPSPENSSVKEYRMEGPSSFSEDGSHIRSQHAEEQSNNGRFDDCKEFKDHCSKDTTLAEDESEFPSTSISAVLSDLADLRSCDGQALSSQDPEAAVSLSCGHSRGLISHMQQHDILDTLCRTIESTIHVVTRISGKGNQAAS

B1: irisin: secreted cleaved form of FNDC5; recombinant human/mouse irisin with C-terminal his tag produced in HEK293 cells (protein)
chain: DSPSAPVNVTVRHLKANSAVVSWDVLEDEVVIGFAISQQKKDVRMLRFIQEVNTTTRSCALWDLEEDTEYIVHVQAISIQGQSPASEPVLFKTPREAEKMASKNKDEVTMKE
modifications: left off: small tags and cut ends
notes: secreted cleaved form of FNDC5; recombinant human/mouse irisin with C-terminal his tag produced in HEK293 cells
- TMT signal-to-noise ratio [1]: 2.132
- irisin/adipsin TMT signal-to-noise ratio [1]: 0.013
- TMT signal-to-noise ratio [2]: 98.0506
- irisin/adipsin TMT signal-to-noise ratio [2]: 0.094
- TMT signal-to-noise ratio [3]: 377.903
- irisin/adipsin TMT signal-to-noise ratio [3]: 0.346
- TMT signal-to-noise ratio [4]: 125.477
- irisin/adipsin TMT signal-to-noise ratio [4]: 0.516
- TMT signal-to-noise ratio [5]: 49.6598
- irisin/adipsin TMT signal-to-noise ratio [5]: 0.562
